B1: ZNF449 (parent)
chain: HKKKSPGEKPHRCPQCGKCFARKS
B2: ZNF263 (parent)
chain: QPKKLHLCPLCGKNFSNNSNLIRH

Variants of: B1
Assay: protein stability index of a GFP-peptide fusion (GPS, HEK-293T) (PSI 1-6); higher = more stable
Settings: c terminus: a fixed tail appended
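Further: lentivirally expressed fusions sorted by FACS into six bins by GFP to DsRed ratio, PSI derived from sequencing read proportions per bin multiplied by bin number.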

First: HKKKSPGEKPHRCPQCGKCFASKS
Second: HKKKSPGEKPHRCPQCGKCFATKS
The protein stability index of the first is lower: 2.92 for the first, 4.06 for the second.

Compared with HKKKSPGEKPHRCPQCGKCFAVKS, HKKKSPGEKPHRCPQCGKCFARDS is higher in protein stability index: 3.15 for the first, 3.57 for the second.

First: HKKKSPGEKPHRCPQCGKCFARES
Second: HKKKSPGEKPHRCPQCGKCFARFS
The protein stability index of the first is higher: 2.5 for the first, 1.75 for the second.

Going from HKKKSPGEKPHRCPQCGKCFARGS to HKKKSPGEKPHRCPQCGKCFARIS, the protein stability index falls from 3.12 to 2.09.

Going from HKKKSPGEKPHRCPQCGKCFARLS to HKKKSPGEKPHRCPQCGKCFARNS, the protein stability index rises from 2.04 to 2.72.

Going from HKKKSPGEKPHRCPQCGKCFARPS to HKKKSPGEKPHRCPQCGKCFARRS, the protein stability index rises from 2.43 to 3.3.

Going from HKKKSPGEKPHRCPQCGKCFARSS to HKKKSPGEKPHRCPQCGKCFARWS, the protein stability index rises from 2.03 to 2.68.

First: HKKKSPGEKPHRCPQCGKCFARYS
Second: HKKKSPGEKPHRCPQCGKCFARKC
The protein stability index of the first is lower: 3.12 for the first, 3.82 for the second.

First: HKKKSPGEKPHRCPQCGKCFARKD
Second: HKKKSPGEKPHRCPQCGKCFARKF
The protein stability index of the first is higher: 3.97 for the first, 1.99 for the second.

Compared with HKKKSPGEKPHRCPQCGKCFARKI, HKKKSPGEKPHRCPQCGKCFARKK is higher in protein stability index: 3.32 for the first, 3.99 for the second.

First: HKKKSPGEKPHRCPQCGKCFARKP
Second: HKKKSPGEKPHRCPQCGKCFARKT
The protein stability index of the first is lower: 3.76 for the first, 3.8 for the second.

Compared with HKKKSPGEKPHRCPQCGKCFARKV, HKKKSPGEKPHRCPQCGKCFARKW is higher in protein stability index: 1.78 for the first, 2 for the second.

Variants of: B2
Assay: as above
Settings: c terminus: a fixed tail appended

Compared with APKKLHLCPLCGKNFSNNSNLIRH, CPKKLHLCPLCGKNFSNNSNLIRH is lower in protein stability index: 2.97 for the first, 2.69 for the second.

Going from DPKKLHLCPLCGKNFSNNSNLIRH to EPKKLHLCPLCGKNFSNNSNLIRH, the protein stability index rises from 3.09 to 3.16.

First: FPKKLHLCPLCGKNFSNNSNLIRH
Second: GPKKLHLCPLCGKNFSNNSNLIRH
The protein stability index of the first is lower: 2.21 for the first, 2.33 for the second.

First: HPKKLHLCPLCGKNFSNNSNLIRH
Second: IPKKLHLCPLCGKNFSNNSNLIRH
The protein stability index of the first is higher: 2.69 for the first, 2.61 for the second.

First: KPKKLHLCPLCGKNFSNNSNLIRH
Second: LPKKLHLCPLCGKNFSNNSNLIRH
The protein stability index of the first is higher: 2.64 for the first, 2.4 for the second.

Compared with MPKKLHLCPLCGKNFSNNSNLIRH, NPKKLHLCPLCGKNFSNNSNLIRH is higher in protein stability index: 2.6 for the first, 2.83 for the second.

Going from PPKKLHLCPLCGKNFSNNSNLIRH to RPKKLHLCPLCGKNFSNNSNLIRH, the protein stability index rises from 2.43 to 2.47.

First: SPKKLHLCPLCGKNFSNNSNLIRH
Second: TPKKLHLCPLCGKNFSNNSNLIRH
The protein stability index of the first is lower: 2.39 for the first, 2.5 for the second.

Compared with VPKKLHLCPLCGKNFSNNSNLIRH, WPKKLHLCPLCGKNFSNNSNLIRH is higher in protein stability index: 2.12 for the first, 2.26 for the second.

First: YPKKLHLCPLCGKNFSNNSNLIRH
Second: QAKKLHLCPLCGKNFSNNSNLIRH
The protein stability index of the first is lower: 2.23 for the first, 2.42 for the second.

First: QCKKLHLCPLCGKNFSNNSNLIRH
Second: QDKKLHLCPLCGKNFSNNSNLIRH
The protein stability index of the first is lower: 2.13 for the first, 2.42 for the second.

Compared with QEKKLHLCPLCGKNFSNNSNLIRH, QFKKLHLCPLCGKNFSNNSNLIRH is lower in protein stability index: 2.59 for the first, 2.44 for the second.

Compared with QGKKLHLCPLCGKNFSNNSNLIRH, QHKKLHLCPLCGKNFSNNSNLIRH is lower in protein stability index: 2.22 for the first, 1.68 for the second.

Going from QIKKLHLCPLCGKNFSNNSNLIRH to QKKKLHLCPLCGKNFSNNSNLIRH, the protein stability index falls from 2.43 to 2.17.

Going from QLKKLHLCPLCGKNFSNNSNLIRH to QMKKLHLCPLCGKNFSNNSNLIRH, the protein stability index rises from 1.81 to 2.27.

Going from QNKKLHLCPLCGKNFSNNSNLIRH to QQKKLHLCPLCGKNFSNNSNLIRH, the protein stability index rises from 2.31 to 2.47.

Compared with QRKKLHLCPLCGKNFSNNSNLIRH, QSKKLHLCPLCGKNFSNNSNLIRH is higher in protein stability index: 2.06 for the first, 2.53 for the second.

Going from QTKKLHLCPLCGKNFSNNSNLIRH to QVKKLHLCPLCGKNFSNNSNLIRH, the protein stability index falls from 2.57 to 2.3.

Compared with QWKKLHLCPLCGKNFSNNSNLIRH, QYKKLHLCPLCGKNFSNNSNLIRH is lower in protein stability index: 2.14 for the first, 1.89 for the second.

Compared with QPAKLHLCPLCGKNFSNNSNLIRH, QPCKLHLCPLCGKNFSNNSNLIRH is lower in protein stability index: 2.33 for the first, 2.32 for the second.

First: QPDKLHLCPLCGKNFSNNSNLIRH
Second: QPEKLHLCPLCGKNFSNNSNLIRH
The protein stability index of the first is higher: 2.94 for the first, 2.8 for the second.

Compared with QPFKLHLCPLCGKNFSNNSNLIRH, QPGKLHLCPLCGKNFSNNSNLIRH is lower in protein stability index: 2.83 for the first, 2.65 for the second.

First: QPHKLHLCPLCGKNFSNNSNLIRH
Second: QPIKLHLCPLCGKNFSNNSNLIRH
The protein stability index of the first is higher: 2.82 for the first, 2.78 for the second.

Going from QPLKLHLCPLCGKNFSNNSNLIRH to QPMKLHLCPLCGKNFSNNSNLIRH, the protein stability index rises from 2.63 to 2.78.

First: QPNKLHLCPLCGKNFSNNSNLIRH
Second: QPPKLHLCPLCGKNFSNNSNLIRH
The protein stability index of the first is higher: 2.83 for the first, 2.62 for the second.

Going from QPQKLHLCPLCGKNFSNNSNLIRH to QPRKLHLCPLCGKNFSNNSNLIRH, the protein stability index falls from 2.52 to 2.06.

First: QPSKLHLCPLCGKNFSNNSNLIRH
Second: QPTKLHLCPLCGKNFSNNSNLIRH
The protein stability index of the first is higher: 2.56 for the first, 2.17 for the second.

First: QPVKLHLCPLCGKNFSNNSNLIRH
Second: QPWKLHLCPLCGKNFSNNSNLIRH
The protein stability index of the first is higher: 2.67 for the first, 1.93 for the second.

Compared with QPYKLHLCPLCGKNFSNNSNLIRH, QPKALHLCPLCGKNFSNNSNLIRH is higher in protein stability index: 2.05 for the first, 2.19 for the second.

First: QPKCLHLCPLCGKNFSNNSNLIRH
Second: QPKDLHLCPLCGKNFSNNSNLIRH
The protein stability index of the first is lower: 2.53 for the first, 3 for the second.

Compared with QPKELHLCPLCGKNFSNNSNLIRH, QPKFLHLCPLCGKNFSNNSNLIRH is lower in protein stability index: 3.36 for the first, 2.17 for the second.

Compared with QPKGLHLCPLCGKNFSNNSNLIRH, QPKHLHLCPLCGKNFSNNSNLIRH is lower in protein stability index: 2.63 for the first, 2.49 for the second.

First: QPKILHLCPLCGKNFSNNSNLIRH
Second: QPKLLHLCPLCGKNFSNNSNLIRH
The protein stability index of the first is lower: 2.85 for the first, 2.97 for the second.

Going from QPKMLHLCPLCGKNFSNNSNLIRH to QPKNLHLCPLCGKNFSNNSNLIRH, the protein stability index rises from 2.53 to 2.92.

Compared with QPKPLHLCPLCGKNFSNNSNLIRH, QPKQLHLCPLCGKNFSNNSNLIRH is higher in protein stability index: 2.69 for the first, 3.03 for the second.

Reference: the supplement of paper PMC10567573
